The supplement of paper PMC10567573

B1: NCF4 (parent)
chain: FGPDSKSSALACTLPTLPAKVYVG
B2: PPEF2 (parent)
chain: DHSGFISLDEFRQTWKLFSSHMNI

Variants of: B1
Test: protein stability index of a GFP-peptide fusion (GPS, HEK-293T) (PSI 1-6); higher = more stable
Settings: c terminus: a fixed tail appended
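Also: lentivirally expressed fusions sorted by FACS into six bins by GFP to DsRed ratio, PSI derived from sequencing read proportions per bin multiplied by bin number.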

Protein stability index, by site and new letter:
V23: D 3.21; C 2.72; W 2.07; I 2.29; G 2.66; E 2.81; R 2.81; L 2.67; K 2.86; M 2.34; A 2.29; H 3.06; Q 2.36; F 1.78; N 3.2; P 2.77; Y 2.39; T 2.96; S 2.62
Y22: H 2.87; E 2.85; T 2.93; L 2.12; D 2.83; K 2.95; N 2.94; W 1.67; I 2.36; V 2.37; G 3.11; S 3.4; F 2.67; R 3.24; A 2.71; C 2.63; P 2.96; Q 3.12; M 2.7
V21: G 2.56; N 3.32; T 3.05; Q 2.81; D 3.28; R 3.29; H 2.44; F 2; W 2.63; S 2.61; L 1.91; P 2.73; Y 2.1; A 2.71; K 3.09; C 2.58; E 3.17; I 1.91; M 1.8
G24: W 2.29; P 1.68; H 2.08; A 1.83; V 1.84; I 1.74; F 2.92; Y 1.75; R 2.29; Q 2.22; N 1.85; C 1.65; K 2.88; T 1.9; L 2.56; E 2.55; M 1.63; D 3.36; S 1.97
K20: R 2; T 1.98; Q 2.08; W 2.15; S 2.31; V 1.81; Y 2.58

Variants of: B2
Test: as above
Settings: c terminus: a fixed tail appended

Protein stability index: each site, then its substitutions
T14: C 2.88; F 1.83; A 2; E 1.87; D 1.71; G 1.69
F11: E 2.37; K 1.64; M 2.14; G 2.52; H 1.95; R 2.01; T 1.74; P 1.85; L 3.54; Q 1.56; D 1.61; V 2.07; C 1.94; A 1.32; W 1.64; I 1.79; Y 2.19; N 1.51; S 1.68
D1: L 3.93; C 2.13; Y 2.58; A 1.51; I 3.63; G 1.47; K 2.64; T 2.84; Q 2.4; F 2.27; S 4.12; R 1.95; N 3.49; V 2.56; M 1.94; W 2.08; H 1.38; E 1.4; P 2.12
L8: F 2.59; M 1.88; Y 1.87; S 1.75; G 2.13; Q 2.01; D 2.13; C 1.71; H 2.44; E 1.85; N 1.62; I 2.24; A 1.62; W 2.06; T 2.09; R 1.93; P 1.9; K 1.97; V 2.74
I6: A 1.39; V 1.41; Q 1.91; K 1.94; D 1.62; N 1.6; P 2.02; G 1.28; R 2.08; H 1.71; L 1.65; M 2.32; S 1.75; E 1.66; W 1.82; F 1.03; Y 1.89; T 1.71; C 1.86
D9: L 3.39; Y 1.51; N 1.51; A 3.05; I 3.32; R 1.92; H 1.87; C 2.73; F 2.48; V 2.94; E 2.29; K 2.1; P 1.21; M 2.67; T 2.24; G 2.82; W 2.75; S 1.84; Q 2.2
F5: A 1.33; Q 1.73; D 1.41; T 1.54; H 1.77; S 1.85; C 1.66; I 1.86; P 2.12; R 1.28; L 1.92; N 2.13; W 1.93; E 1.65; K 1.52; Y 2.35; M 1.4; V 1.53; G 2.5
R12: A 1.87; K 1.89; Y 2.69; F 3.28; S 2.04; N 1.81; M 2.38; L 1.53; W 2.39; C 1.74; V 2.88; E 1.62; G 2.79; T 2.98; D 2.06; P 1.61; Q 1.38; H 1.86; I 2.73
H2: Y 2.11; G 1.43; I 1.91; E 1.44; V 1.45; Q 1.75; M 3.51; D 1.86; F 1.9; T 1.72; S 1.92; A 2.35; R 1.34; L 1.25; W 1.82; K 2.01; N 1.14; C 1.75; P 2.32
S3: G 1.97; A 1.92; M 1.69; E 2.17; K 2.47; V 1.46; P 1.91; F 2.23; Q 1.85; L 2.07; I 1.84; N 1.99; D 2; W 1.8; H 1.69; C 1.81; R 2.58; Y 2.27; T 2.62
E10: R 1.6; V 2.88; A 2.48; W 1.87; K 1.79; N 2.85; M 2.26; F 1.72; Y 1.82; P 2.26; S 1.35; L 2.49; G 1.26; D 1.71; Q 1.96; H 2.25; C 1.95; I 1.58; T 2.37
G4: V 3.22; R 1.87; H 2.28; W 1.98; E 2.16; N 2.69; P 1.98; M 1.65; A 2.89; K 1.31; F 2.5; I 2.78; D 1.78; Q 2.47; C 2.41; T 1.95; S 1.51; Y 2.27; L 2.95
Q13: E 2.36; H 1.87; A 1.73; Y 1.45; D 1.61; T 3.18; L 3.59; P 2.35; S 2.13; I 3.27; R 2.03; F 3.91; W 2.52; V 2.95; G 1.96; K 1.68; N 2.65; M 3.2
S7: H 1.83; P 1.44; K 1.69; C 2.37; L 1.83; M 2.3; E 1.86; R 2.1; I 2.44; D 1.47; N 2.06; T 2.04; Y 1.97; A 2.06; Q 1.79; F 2.52; W 2.08; G 2.95
